According to the nanobody polyreactivity screen of Harvey et al. (2022):

Assay: yeast display, Sf9 membrane polyspecificity reagent, FACS + sequencing; frameworks hold sequencing errors
Summary of the method: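 Using colony PCR, genes from sorted yeast display clones were amplified, then sequenced on MiSeq at 2 × 250 and filtered by CDR length. The clones had been stained with 10% biotinylated, detergent-solubilized Sf9 membrane reagent for 1 hour at 4 °C and sorted by FACS into low and high (top ~1%) gates on anti-HA and streptavidin fluorescence. Polyreactivity labels come from the gate of origin.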

QVQLVESGGGLVQAGGSLRLSCAASGRTFSGYAMGWYRQATGKERELVAAITRRGGTTYYADSVKGRFTISRDNAKNTVYLQMNSLKPEDTAVYYCAAAKPRVISQNIIYDYWGQGTQVTVSS
polyreactivity (PSR sort gate): high polyreactivity

QVQLVESGGGLVQAGGSLRLSCAASGFTFWRYAMGWYRQAPGKDRELVAAISSSGGSTYYADSVKGRFTISRDNAKNTVYLQMNSLKPEVTAVYYCATSVRFVRGWGYSYRGYDYWGQGTQVTVSS
polyreactivity (PSR sort gate): high polyreactivity

QVQLVESGGGLVQAGGSLRLSCAASGFNFLTYAMGWYRQATGKESELVAAISSSGGRTTYADSVKGRFTISRDNAKNTVYLQMNSLKPEDTAVYYCAVEDYTIVLDYESWGQGTQVTVSS
polyreactivity (PSR sort gate): high polyreactivity

QVQLVESGGGLVQAGGSLRLSCAASGRTFFWYAMGWYRQAPGKERELVAGISRGGRTNYADSVKGRFTISRDNAKNTVYLQMNSLKPEDTAVYYCAADSWLTYFLGTSEHYYWGQGTQVTVSS
polyreactivity (PSR sort gate): high polyreactivity

QVQLVESGGGLVQAGGSLRLSCAASGRIFRYYAMGWFRQAPGKERELVASISRRGGSTNYADSVKGRFTISRDNAKNTVDLQMNSLKPEDTAVYYCNAENSSPRGLYNYWGQGTQVTVSS
polyreactivity (PSR sort gate): high polyreactivity

QVQLVESGGGLVQAGGSLRLSCAASGSTFITYVMGWYRQAPGKERELVAAISRSGGTTYYADSVKGRFTISRDNAKNTVYLQMNCLKPEDTAVYYCAARIGGQVQKTARGSWGQGTQVTVSS
polyreactivity (PSR sort gate): high polyreactivity

QVQLVDSGGGLVQAGGSLRLSCPASGSIISVYARGWYRQAPGKERELVADITGTGDTYYADSVKGRFTISRDKAKNTVYLHRNSLKPDDTAGYYCNTVYELYYDPSVTEDYWGQGTQVTVSS
polyreactivity (PSR sort gate): low polyreactivity

QVQLVESGGGLVQAGGSLRLSCDASGITIRLYGMGWYRQAPGTERELVATITRDGRTYYADSVKGRFTISRDNAKNTVYLQMNSLKPEDTGVYYCARPARYSYGDGYWGQGTEVTVSS
polyreactivity (PSR sort gate): low polyreactivity

QVQLVESGGGIVQAGGSLRLSCAASGRIFPYNAMGWYIQAPGKERELVAAIRWSGGNTYYADSVKGRFTISRDNAKNTVYLQMNSLKPEDNAVYYCAKYRRSFGFDYWGQGTQVTVSS
polyreactivity (PSR sort gate): high polyreactivity

QVQLVETGGGLVQAGGSLLLSCAASGFTLLSYAMGWYRQAPGKERELVAAISESGVSTSYADSVKGRFTISRDNAKNTVYLQMKSLKPEDTAFYYCNKSDFWVVIYDSWGQGTQVTVSS
polyreactivity (PSR sort gate): low polyreactivity

QVQLVVSGGGLVQAGGSLRLSCAASGRTFRSYAMGWYRQAPGKERELVAAISYGGGSTYYADSVKGRFTISRDNAKNTVYLQMNSLKPEDTAVYYCAAAVYKRGGYDYWGQGTQVTVSS
polyreactivity (PSR sort gate): high polyreactivity

QVQLVESGGGLVQAGGILRLSCAASGLTFNYYDMGWYRQAPGKERELVAAISRSGTNTSYADSVKGRFTISRDNAKNTVYLQMNSLKPEDTAVYYCNSAGVYLAAGPYTANFNYNYWGQGTQVTVSS
polyreactivity (PSR sort gate): low polyreactivity

QVQLVESGGGLVQAGGSLRLSCAASGSTFYKYTMGWYRQAPGKERELVAAISGSGTTTYYADSVKGRFTISRDNAKNTVYLQMNSLKPEDTAVYYCAARRFSPGSSGHGYWGQGTQVTVSS
polyreactivity (PSR sort gate): high polyreactivity

QVQLVESGGGLVQAGGSLRLSCAASGRTFGGYAMGWYRQAPGKERELVAAITSDTGTNYADSVKGRFTISRDNAKNTVYLQMNSLKPEDTAVYYCAADRFYEYDYWGQGTQVTVSS
polyreactivity (PSR sort gate): low polyreactivity

QVQLVESGGGLVQAGGSLRLSCAASGSIIASNAMGWYRHAPWKERELVAAITNGGRTNYADSVKGRFTISRDNAKNTVYLQMNSMKPEDTAVYYCDALWSRCAGFEYCGQGTQVTVSS
polyreactivity (PSR sort gate): high polyreactivity

QVQLVESGGGLVQAGGSLRLSCAASGSTFKVNVMGCYRKAPVKERELVAAINQSVRGTYYADSVKGRFTISRDNAKNTVYLQMNSLKPEDTAVYYCAAKIIVLRYVLSQEQRRYNYWGQGTQVTVSS
polyreactivity (PSR sort gate): low polyreactivity

QVQLVESGGGLVQAGGSLRLSCAASGRTFRFNAMGWYRQAPGKEMELVAAISSGGRTYYADSVKGRFTISRDNAKNTVYLQMNSLKPEDTAVYYCAARVFVRHPHQVAYDYWGQGTQVTVSS
polyreactivity (PSR sort gate): high polyreactivity

QVQLVESGGGLVQAGGSLRLTCAASGFIFKANAMGWYRQAPGKERELVASITFGGDSTYYADSVKGRFTISRDNAKNTVYLHMNSLKPEDTAVYYCNTRRRSYRTYYYWGQGTQVTVLS
polyreactivity (PSR sort gate): low polyreactivity

QVQLVESGGGLVQAGGSLRLSCAASGRISAYAMGWYRQAPGKERELVAAISSRGGRTYYADSVKGRFTISRDNAKTTVYLQMNSLKPEDTAVYYCNALRPWEFDHWGHGTQVTVSS
polyreactivity (PSR sort gate): high polyreactivity

QVQLVESGGGLVQAGGSLRLSCAASGRIVSGYAMVWYRQAPGKERELVAAITSGGSTNYADSVKGRFTLSRDNAKNTVYLQMNSLKPEDTAVYYCAADSREVSTTAYYYWGQGTQVTVSS
polyreactivity (PSR sort gate): low polyreactivity

QVQLVESGGGLVQAGGSLRLSSAASGSIFDPYAMGWYRQAPGKERELVAGISFSGGRTYYADSVKGRFTISRDNAKNTVYLQMNSLKPEDTAVYYCNKLLTQGAYPYYYWGQGTQVTVSS
polyreactivity (PSR sort gate): high polyreactivity

QVQLVESGGGLVQAGGSLRLSCAASGSIYLIYAMGWYRQAPGKERELDAAISRSGGHTYYADSVKGRFTISRDNAKITVYLQMNSLKPEDTAVYYCAAKSYSSGTYGYNYWGQGTQVTVSS
polyreactivity (PSR sort gate): high polyreactivity

QVQLVESGGGLVQAGGSLRLSCAASGITFGYNAMGWYRQAPGTEREFVAGISWSGGSTYYADSVKGRFTISRDNAKNTVYLQMNSLKPEDTAVYYCAKLARGGWYGGGRSLSYGYWGQGTQVTVSS
polyreactivity (PSR sort gate): high polyreactivity

QVQLVESGGGLVQAGGSLRLSCAASGSIFKTYAMGWYRQAPGKERELVAAISWRGGSTYYADSVKGRFTISRDNAKNTVYLEMNSLKPEDTAVYYCAAGRKFGTRTLWYRYGYWGQGTQVTVSS
polyreactivity (PSR sort gate): high polyreactivity

QVHLEESGGGLVQAGGSLRLSSAASGSNFDYNAMGWYRQAPGKERELVAAISRTGGRTYYADSVKGRFTISRDNAKNTVYLQMNSLKPEDTAVYYWNAVNRIGGGDYDYWGLGTQVTVSS
polyreactivity (PSR sort gate): low polyreactivity

QVQLVESGGGLVQAGGSLRLSCAASGLIFTRYAMGWYRQAPGKERELVAAISYSGTSTYYADSVKGRFTISRDNAKNTVYLQMNSLKPEDTAVYYCAAAYSRGSGVGRYRLDYWGQGTQVTVSS
polyreactivity (PSR sort gate): high polyreactivity

QVQLVESGGGLVQAGGSLRLSCAASGRTFTSYAMGWYRQAPGKERELVAVITWRGVSTYYADSVKGRFTISRDNAKNTVYLQMNSLKPEDTAVYYCAARRPGYYPYKGFDYWGQGTQVTVSS
polyreactivity (PSR sort gate): high polyreactivity

QVQLVESGGGLVQAGGSLRLSCAASGRISVRIYAMGWYRQAPGKERELVAIIARSGGSTYYADSVKGRFTISRDNAKHTVYLPMNSLKPADTAVYYCAAGYRTRRGLGYYYWGQGTQVTVSS
polyreactivity (PSR sort gate): high polyreactivity

QVQLVESGGGLVQAGGSLRLSCAASGRTFPGNAMGWYRQAPGKERELVAAITRVGSTYYADSVKGRFTISRDNAKNTVYLQMNSLKPEDTAVYYCAADRLEGYYEDDATGFDYWRQGTQVTVSS
polyreactivity (PSR sort gate): low polyreactivity

QVQLVESVGGLVQAGVSLRLRCAASGFIFWYYAMGWYRQATGKDRELVASISARDGSTYYADSVKGRFTISRYNAKNTVYLQMNSLKPEDTAVYYCNAVQRYPKYRMDYCGQGTQVTVSS
polyreactivity (PSR sort gate): low polyreactivity

QVQLVESGGGLVQAGGSLRLSCAASGNTFYRYAMGRYRQAPGKEREFVAGITSRGGSTSYADSVKGRFTISRDSAKNTVYLQMNILKPEDTAVYYCAARYSKVHFAYDYWGQGTQVTVSS
polyreactivity (PSR sort gate): high polyreactivity

HVQLVESGGGLVQAGGSLRLSCAASGSICSWYGMGWYRQAPGKERELVAAITWTGGSTYYADSVKGRFTISRDNAKNTVYLQMNSLKQEDTAVYYCSADLRYVGFYYWGQGTQVTVSS
polyreactivity (PSR sort gate): high polyreactivity

QVQLVESGGGLVQAGGSLRLSYAASGSTFFFNALGWYRQAPGKERELVATISRDGSTNYADSVKGRFTISRDNAKNTVYLQINSLKPEDTAVYYCAAGWGWPYHQYDYWGQGTQVTVSS
polyreactivity (PSR sort gate): low polyreactivity

QVLLQESGGGLVQAGGSLRVSCAASGTISTDIRMGSYRLAPGKEREFVASIDGCSTTYYADSVKGRFTISRDNAKNTVYLQMNSLKPEDTAMYYCAAREATEYYLYYWGQGTQVTVSS
polyreactivity (PSR sort gate): low polyreactivity

QVQLVESGGGLVQAGGSLRLSCAASGSTLIANAMGWYRQAPGKERELVAGITYRGGDITTYADSVKGRFTISRDTAKNTVYLQMNSLKPEDTAVYYCAARVVWPTWARGGYWGQGTQVTVSS
polyreactivity (PSR sort gate): low polyreactivity

QVQLVESGGVLVQAGGSLRLSCAASGSISSVYAMGWYRQAPGKDRELVAGITSGGSTNYADSVKGRFTISRDNAKITVYLQMNSLKPEDTAVYYCAAVYKGAGTHFDVFVKEFDYWRQGTQVTVSS
polyreactivity (PSR sort gate): low polyreactivity

QVQLVESGGGLDQAGGSLRLTCAASGSTFEVYAMGWYRQAPGKERELVAVNNVSDGSTYYADSVKGRFTISRDNAKNTVYLQMNSLKPEDTAVYYCAAYLYNRPYQLTGYYDGYGYWGQGTQVTVSS
polyreactivity (PSR sort gate): low polyreactivity

QVQIVESGGGLVQAGGSLRLSCAASGIFYAMGWYRQAPWTKRELDDAISSVGSTNYADSVKGRFSISRDNAKNTVYLQMNSLKPEDTAVYYCAAYFYTYPVDRYGSYYWGQVTQVTVSS
polyreactivity (PSR sort gate): low polyreactivity

QVQLVESGGGLVQAGGSLRLSCAASGFTFASNAMGWYRQAPGKERELVAGISRTGTTTYYADSVKGRFTISRDNAKNTVYLQMNSLKPEDTAVYYCNKAFSHQIYATGMGYWGQGTQVTVSS
polyreactivity (PSR sort gate): high polyreactivity

QVQLVESGGGLVQAGGSLRLSCAASGFTFPGNAMGWYRQAPGKEREFVAAITRSSGSTSYADSVKGRFTISRDNAKNTVYLQMNSLKPDDTAVYRDYWGLGTQVTVSS
polyreactivity (PSR sort gate): low polyreactivity

QVQLVESGGGLVQAGGSLRLSCAAYGRTFFWNAMGLYRKAPGTETELVAAITWSGGSTYYADSVKGRFTISRDNAKITVYLQMNSLKPEDTAVYYCASVVSDYVWRYEYWGQGTQVTVSS
polyreactivity (PSR sort gate): low polyreactivity

QVQLVESGGGLVQAGGSLRLSCAASGRIFWDNAMGWYRQAPGKERELVAAITFSGGSTYYADSVKGRFTISRDNAKNTVYLQMNSLKPEDTAVYYCAKGEWVYWRPWYEYWGQGTQVTVSS
polyreactivity (PSR sort gate): low polyreactivity

QVQLVESGGGLVQAGGILRLSCAASGRIFTPYTMGWYRQAPGKERELVATITWSGGSTYYADSVKGRFTISRDNAKNTVYLQMNSLKPEDTAVYYCAARPIYVWAEYDYWGQGTQVTVSS
polyreactivity (PSR sort gate): low polyreactivity
